Measured values taken from FireProtDB (doi:10.1016/s0301-4622(02)00027-3).

B1: Endoglucanase C, P0C2S3 (parent)
chain: MVSFKAGINLGGWISQYQVFSKEHFDTFITEKDIETIAEAGFDHVRLPFDYPIIESDDNVGEYKEDGLSYIDRCLEWCKKYNLGLVLDMHHAPGYRFQDFKTSTLFEDPNQQKRFVDIWRFLAKRYINEREHIAFELLNEVVEPDSTRWNKLMLEYIKAIREIDSTMWLYIGGNNYNSPDELKNLADIDDDYIVYNFHFYNPFFFTHQKAHWSESAMAYNRTVKYPGQYEGIEEFVKNNPKYSFMMELNNLKLNKELLRKDLKPAIEFREKKKCKLYCGEFGVIAIADLESRIKWHEDYISLLEEYDIGGAVWNYKKMDFEIYNEDRKPVSQELVNILARRKT

Variants of: B1
Conditions: Acetivibrio thermocellus, pH 7.2, structure 1CEC, whole UniProt chain shown; for Tm / change of melting temperature, mutant - wild type (higher = more stable): Thermal, DSC, Tris 20 mM, reversible: No
[1] = 25 °C, GdnHCl, CD, Tris 50 mM, reversible: yes

Variant	Tm [°C]	change of melting temperature, mutant - wild type (higher = more stable) [°C]	ddG of mutation (higher = less stable) [1] [kcal/mol]	denaturant midpoint (higher = more stable) [1] [M]	unfolding free energy [1] [kcal/mol]
MVSFKAGINLGGWISQYQVFSKEHFDTFITEKDIETIAEAGFDHVRLPFDYPIIESDDNVGEYKEDGLSYIDRCLEWCKKYNLGLVLDMHHAPGYRFQDFKTSTLFEDPNQQKRFVDIWRFLAKRYINEREHIAFELLNEVVEPDSTRWNKLMLEYIKAIREIDSTMWLYIGGNNYNSPDELKNLADIDDDYIVYNFHFYNPFFFTHQKAHWSESAMAYDRAVKYPGQYEGIEEFVKNNPKYSFMMELNNLKLNKELLRKDLKPAIEFREKKKCKLYCGEFGVIAIADLESRIKWHEDYISLLEEYDIGGAVWNYKKMDFEIYNEDRKPVSQELVNILARRKT [N220D T222A]	68.3	-2.1			
MVSFKAGIDLGGWISQYQVFSKEHFDTFITEKDIETIAEAGFDHVRLPFDYPIIESDDNVGEYKEDGLSYIDRCLEWCKKYNLGLVLDMHHAPGYRFQDFKTSTLFEDPNQQKRFVDIWRFLAKRYINEREHIAFELLNEVVEPDSTRWNKLMLEYIKAIREIDSTMWLYIGGNNYNSPDELKNLADIDDDYIVYNFHFYNPFFFTHQKAHWSESAMAYNRTVKYPGQYEGIEEFVKNNPKYSFMMELNNLKLNKELLRKDLKPAIEFREKKKCKLYCGEFGVIAIADLESRIKWHEDYISLLEEYDIGGAVWNYKKMDFEIYNEDRKPVSQELVNILARRKT [N9D]	63.9	-6.5			
MVSFKAGINLGGWISQYQVFSKEHFDTFITEKDIETIAEAGFDHVRLPFDYPIIESDDNVGEYKEDGLSYIDRCLEWCKKYNLGLVLDMHHAPGYRFQDFKTSTLFEDPNQQKRFVDIWRFLAKRYINEREHIAFELLNEVVEPDSTRWNKLMLEYIKAIREIDSTMWLYIGGNNYNSPDELKNLADIDDDYIVYNFHFYNPFFFTHQKAHWSESAMAYNRTVKYPGQYEGIEEFVKNNPKYSFMMELNNLKLNKELLRKDLKPAIEFREKKKCKLYCGEFGVIAIADLESRIKWHEDYISLLEEYDIGGAVWNYKKMDFEIYNEDRKPVSQGLVNILARRKT [E333G]	69.4	-1			
MVSFKAGINLGGWISQYQVFSKEHFDTFITEKDIETIAEAGFDHVRLPFDYPIIESDDNVGEYKEDGLSYIDRCLEWCKKYNLGLVLDMHHAPGYRFQDFKTSTLFEDPNQQKRFVDIWRFLAKRYINEREHIAFELLNEVVEPDSTRWNKLMLEYIKAIREIDSTMWLYIGGNNYNSPDELKNLADIDDDYIVYNFHFYNPFFFTHQKAHWSESAMAYNRTVKYPGQYEGIEEFVKNNPKYSFMMELNNLKLNKELLRKDLKPAIEFREKKKCKLYCGEFGVIAIADLESRAKWHEDYISLLEEYDIGGAVWNYKKMDFEIYNEDRKPVSQELVNILARRKT [I293A]	67.6	-2.8			
MVSFKCGINLGGWISQYQVFSKEHFDTFITEKDIETIAEAGFDHVRLPFDYPIIESDDNVGEYKEDGLSYIDRCLEWCKKYNLGLVLDMHHAPGYRFQDFKTSTLFEDPNQQKRFVDIWRFLAKRYINEREHIAFELLNEVVEPDSTRWNKLMLEYIKAIREIDSTMWLYIGGNNYNSPDELKNLADIDDDYIVYNFHFYNPFFFTHQKAHWSESAMAYNRTVKYPGQYEGIEEFVKNNPKYSFMMELNNLKLNKELLRKDLKPAIEFREKKKCKLYCGEFGVIAIADLESRIKWHEDYISLLEEYDIGGAVWNYKKMDFEIYNEDRKPVSQELVNILACRKT [A6C R340C]	73.4		-1.73	2.61	8.03
